Tests used:
[1] = biological target: oAβ42 Aβ42 (Homo sapiens) (UniProt P05067); conditions: cited from earlier work
C1q (Homo sapiens) = C1q (Homo sapiens) (UniProt P02745); assay: ELISA; conditions: cited from earlier work
TREM2 F74D (human) = TREM2 F74D (human) (UniProt Q9NZC2); assay: BLI; biotinylated TREM2 WT and variants immobilised on SA biosensors; C1q 62.5 – 1000 nM in PBS with 0.1% BSA and 0.005% Tween-20; 1:1 kinetic fits
TREM2 L71D (human) = TREM2 L71D (human) (UniProt Q9NZC2); assay: as above
Sequence of TREM2 L71D (human) (Q9NZC2 19-230 L71D): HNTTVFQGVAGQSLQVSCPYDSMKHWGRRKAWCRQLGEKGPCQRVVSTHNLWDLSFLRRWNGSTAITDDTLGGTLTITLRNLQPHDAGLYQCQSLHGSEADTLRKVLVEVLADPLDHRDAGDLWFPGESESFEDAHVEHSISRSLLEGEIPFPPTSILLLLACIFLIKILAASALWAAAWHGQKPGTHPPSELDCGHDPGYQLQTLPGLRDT

TREM2 M41D (human) = TREM2 M41D (human) (UniProt Q9NZC2); assay: as above
Sequence of TREM2 M41D (human) (Q9NZC2 19-230 M41D): as the sequence (Q9NZC2 19-230 L71D) above, with M23D, D53L counted along it

TREM2 R47H (human) = TREM2 R47H (human) (UniProt Q9NZC2); assay: as above
Sequence of TREM2 R47H (human) (Q9NZC2 19-174 R47H): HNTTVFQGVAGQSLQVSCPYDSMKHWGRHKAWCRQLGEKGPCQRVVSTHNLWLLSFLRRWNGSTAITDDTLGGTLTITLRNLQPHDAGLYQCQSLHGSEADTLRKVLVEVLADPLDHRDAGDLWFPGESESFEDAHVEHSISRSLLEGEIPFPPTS

TREM2 R62H (human) = TREM2 R62H (human) (UniProt Q9NZC2); assay: as above
Sequence of TREM2 R62H (human) (Q9NZC2 19-174 R62H): as the sequence (Q9NZC2 19-174 R47H) above, with H29R, R44H counted along it

TREM2 WT (human) [2] = biological target: TREM2 WT (human) (UniProt Q9NZC2); assay: as above
Sequence of TREM2 WT (human) (Q9NZC2 19-174): as the sequence (Q9NZC2 19-174 R47H) above, with H29R counted along it

TREM2 WT (human) [3] = biological target: TREM2 WT (human) (UniProt Q9NZC2); assay: BLI; sequential competition: biotinylated TREM2 WT on SA biosensors, first ligand or no ligand at one concentration (500 nM apoE2, apoE4, oAβ42 or IL-34; 1000 nM C1q), buffer, then second ligand

Sequence of TREM2 (Q9NZC2 19-174): as the sequence (Q9NZC2 19-174 R47H) above, with H29R counted along it
Sequence of TREM2 F74D (human) (Q9NZC2 19-230 F74D): as the sequence (Q9NZC2 19-230 L71D) above, with D53L, F56D counted along it
Sequence of C1q (Homo sapiens) (P02745 23-245, chain 1 of 3): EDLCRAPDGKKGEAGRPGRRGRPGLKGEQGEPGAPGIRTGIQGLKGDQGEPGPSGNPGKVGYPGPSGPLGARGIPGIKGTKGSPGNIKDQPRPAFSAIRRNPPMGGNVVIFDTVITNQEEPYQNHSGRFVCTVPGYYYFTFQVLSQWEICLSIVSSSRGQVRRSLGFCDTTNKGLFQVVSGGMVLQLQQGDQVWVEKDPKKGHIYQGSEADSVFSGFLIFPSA
Sequence of C1q (Homo sapiens) (P02746 28-253, chain 2 of 3, further chain): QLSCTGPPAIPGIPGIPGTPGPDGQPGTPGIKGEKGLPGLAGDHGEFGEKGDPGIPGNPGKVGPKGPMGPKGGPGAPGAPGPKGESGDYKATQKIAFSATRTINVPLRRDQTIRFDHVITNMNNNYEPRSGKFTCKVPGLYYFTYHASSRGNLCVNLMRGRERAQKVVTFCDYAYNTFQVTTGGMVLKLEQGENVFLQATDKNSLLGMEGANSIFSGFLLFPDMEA
Sequence of C1q (Homo sapiens) (P02747 29-245, chain 3 of 3, further chain): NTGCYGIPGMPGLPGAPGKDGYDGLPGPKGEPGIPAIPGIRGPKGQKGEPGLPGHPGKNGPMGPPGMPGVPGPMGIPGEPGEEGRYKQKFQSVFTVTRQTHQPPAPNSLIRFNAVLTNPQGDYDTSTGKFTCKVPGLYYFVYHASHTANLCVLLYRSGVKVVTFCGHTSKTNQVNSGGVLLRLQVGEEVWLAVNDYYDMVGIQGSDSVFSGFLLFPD

Kd (TREM2 F74D (human)) [nM] | Kd (TREM2 L71D (human)) [nM] | Kd (TREM2 M41D (human)) [nM] | Kd (TREM2 R47H (human)) [nM] | Kd (TREM2 R62H (human)) [nM] | Kd (TREM2 WT (human) [2]) [nM] | percent decrease of apoE2 binding to TREM2 after pre-binding 1000 nM C1q (TREM2 WT (human) [3]) [%] | Substance | Kd [1] [nM] | Kd (C1q (Homo sapiens)) [nM]
 |  |  |  |  |  |  | TREM2 (from UniProt Q9NZC2) | 526 | 7.35
110 | 58 | 2540 | 180 | 1660 | 650 | 11.4 | complement C1q (complex) |  | 

Source: publication PMC11419269
